How the values were obtained:
[1] = target: the molecule itself; assay: native gel or EMSA
[2] = target: the molecule itself; assay: AUC
[3] = target: the molecule itself; assay: single-particle cryo-EM, 2D class averages

B1: recombinant human TRAP1 (mitochondrial Hsp90), wild type (natural protein, UniProt Q12931 60-704, looked up)
chain: STQTAEDKEEPLHSIISSTESVQGSTSKHEFQAETKKLLDIVARSLYSEKEVFIRELISNASDALEKLRHKLVSDGQALPEMEIHLQTNAEKGTITIQDTGIGMTQEELVSNLGTIARSGSKAFLDALQNQAEASSKIIGQFGVGFYSAFMVADRVEVYSRSAAPGSLGYQWLSDGSGVFEIAEASGVRTGTKIIIHLKSDCKEFSSEARVRDVVTKYSNFVSFPLYLNGRRMNTLQAIWMMDPKDVREWQHEEFYRYVAQAHDKPRYTLHYKTDAPLNIRSIFYVPDMKPSMFDVSRELGSSVALYSRKVLIQTKATDILPKWLRFIRGVVDSEDIPLNLSRELLQESALIRKLRDVLQQRLIKFFIDQSKKDAEKYAKFFEDYGLFMREGIVTATEQEVKEDIAKLLRYESSALPSGQLTSLSEYASRMRAGTRNIYYLCAPNRHLAEHSPYYEAMKKKDTEVLFCFEQFDELTLLHLREFDKKKLISVETDIVVDHYKEEKFEDRSPAAECLSEKETEELMAWMRNVLGSRVTNVKVTLRLDTHPAMVTVLEMGAARHFLRMQQLAKTQEERAQLLQPTLEINPRHALIKKLNQLRASEPGLAQLLVDQIYENAMIAAGLVDDPRAMVGRLNELLVKALERH
- stoichiometry N [1]: 4
- ratio between dimer and tetramer population [2]: 7 dimer:tetramer (7:1)

B2: TRAP1 fused with SpyCatcher at the C-terminus (TRAP1_(SpyCatcher)) (natural protein, human, UniProt Q12931 60-704, looked up)
chain: B1 chain
- stoichiometry N [3]: 4

Reference: paper doi:10.1101/2020.11.04.368837 (bioRxiv, 2020)
